Measurements as given in US20140112930A1 (published 2014).

T1: hAng-1-WT (human, UniProt Q15389 20-498, limits assumed)
T1 construct: a tag is not mentioned there; also called full-length wild-type human Ang-1
T1 sequence (looked up): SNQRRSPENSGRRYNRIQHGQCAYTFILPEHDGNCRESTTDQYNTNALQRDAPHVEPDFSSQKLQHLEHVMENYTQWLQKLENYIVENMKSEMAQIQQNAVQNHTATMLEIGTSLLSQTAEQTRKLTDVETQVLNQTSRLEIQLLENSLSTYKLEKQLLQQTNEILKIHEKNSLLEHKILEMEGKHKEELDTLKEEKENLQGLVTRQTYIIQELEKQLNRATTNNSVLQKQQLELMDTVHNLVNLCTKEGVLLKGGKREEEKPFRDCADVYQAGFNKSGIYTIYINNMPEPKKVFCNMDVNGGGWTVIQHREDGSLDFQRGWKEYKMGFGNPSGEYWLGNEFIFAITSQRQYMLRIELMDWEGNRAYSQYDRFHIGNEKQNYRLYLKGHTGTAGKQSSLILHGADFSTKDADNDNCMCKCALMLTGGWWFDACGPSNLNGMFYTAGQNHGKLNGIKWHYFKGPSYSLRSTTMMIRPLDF

B1: H1H706P (antibody, human IgG1, V domains shown)
VH: QVQLVESGGGVVQPGRSLRLSCAASGFTFSSYGMHWVRQAPDKGLEWVAVKWDDGSNKYYADSVKGRFTISRDNSKNTLYLQMNSLRAEDTAVYYCAREGPYDFYSGYGAFDIWGQGTMVTVSS
VL: DIQMTQSPSSLSASVGDRVTITCRASQGISNYLAWFQQKPGKAPKSLIYAASSLQSGVPSKFSGSGSGTDFTLTISSLQPEDFATYYCQQYNSYPRTFGQGTKVEIK
notes: Human IgG1
B2: H1H724N (antibody, V domains shown)
VH: QVQLVESGGGVVQPGRSLRLSCAASGFTLSNYGMHWVRQAPGKGLEWVAVIWHDGSNTYYADSVKGRFTISRDNSKNTLYLQMNSLRAEDTAVYYCTREGLDFWSGYYPNWFDPWGQGTLVTVSS
VL: DIQMTQSPSSLSASVGDRVTITCRASQGIRNDLGWYQQKPGKAPKRLIYAASNLQGGVPSRFSGSGSGTEFTLTISSLQPEDFAAYYCLQHNIYPLTFGGGTKVEIK
B3: hTie-2-mFc (Fc fusion)
chain: AMDLILINSLPLVSDAETSLTCIASGWRPHEPITIGRDFEALMNQHQDPLEVTQDVTREWAKKVVWKREKASKINGAYFCEGRVRGEAIRIRTMKMRQQASFLPATLTMTVDKGDNVNISFKKVLIKEEDAVIYKNGSFIHSVPRHEVPDILEVHLPHAQPQDAGVYSARYIGGNLFTSAFTRLIVRRCEAQKWGPECNHLCTACMNNGVCHEDTGECICPPGFMGRTCEKACELHTFGRTCKERCSGQEGCKSYVFCLPDPYGCSCATGWKGLQCNEACHPGFYGPDCKLRCSCNNGEMCDRFQGCLCSPGWQGLQCEREGIPRMTPKIVDLPDHIEVNSGKFNPICKASGWPLPTNEEMTLVKPDGTVLHPKDFNHTDHFSVAIFTIHRILPPDSGVWVCSVNTVAGMVEKPFNISVKVLPKPLNAPNVIDTGHNFAVINISSEPYFGDGPIKSKKLLYKPVNHYEAWQHIQVTNEIVTLNYLEPRTEYELCVQLVRRGEGGEGHPGPVRRFTTASIGLPPPRGLNLLPKSQTTLNLTWQPIFPSSEDDFYVEVERRSVQKSDQQNIKVPGNLTSVLLNNLHPREQYVVRARVNTKAQGEWSEDLTAWTLSDILPPQPENIKISNITHSSAVISWTILDGYSISSITIRYKVQGKNEDQHVDVKIKNATIIQYQLKGLEPETAYQVDIFAENNIGSSNPAFSHELVTLPESQAPADLGGGKGPGEPRGPTIKPCPPCKCPAPNLLGGPSVFIFPPKIKDVLMISLSPIVTCVVVDVSEDDPDVQISWFVNNVEVHTAQTQTHREDYNSTLRVVSALPIQHQDWMSGKEFKCKVNNKDLPAPIERTISKPKGSVRAPQVYVLPPPEEEMTKKQVTLTCMVTDFMPEDIYVEWTNNGKTELNYKNTEPVLDSDGSYFMYSKLRVEKKNWVERNSYSCSVVHEGLHNHHTTKSFSRTPGK
notes: also called hTie-2-mFc-ecto; human Tie-2 conjugated to mouse IgG

Experiments:
hAng-1-WT [1] = biological target: T1, hAng-1-WT; assay: SPR, 1 uM blocker premixed with 10 nM hAng-1-WT, over hTie-2-mFc surface; RU of hAng-1 bound
Description: (§1) In this experiment, a human Tie-2 full-length extracellular domain construct (hTie-2-mFc-ecto) was amine-coupled on a BIACORE™ chip to create a receptor coated surface. […] The equilibrated solutions were injected over the receptor surfaces at 5 μL/min for 5 minutes at 25° C.

hAng-1-WT [2] = biological target: T1, hAng-1-WT; assay: SPR, 1 uM blocker premixed with 10 nM hAng-1-WT, over hTie-2-mFc surface
Description: as §1

Mouse Ang-2FD-hFc = biological target: T2, Mouse Ang-2FD-hFc (mouse (Mus musculus)); assay: blocking ELISA, 16.67 nM antibody, Ang-2FD-hFc to coated hTie-2-mFc
T2 construct: also called dimeric mouse Ang-2FD
T2 sequence (chain, as listed by the source limits assumed): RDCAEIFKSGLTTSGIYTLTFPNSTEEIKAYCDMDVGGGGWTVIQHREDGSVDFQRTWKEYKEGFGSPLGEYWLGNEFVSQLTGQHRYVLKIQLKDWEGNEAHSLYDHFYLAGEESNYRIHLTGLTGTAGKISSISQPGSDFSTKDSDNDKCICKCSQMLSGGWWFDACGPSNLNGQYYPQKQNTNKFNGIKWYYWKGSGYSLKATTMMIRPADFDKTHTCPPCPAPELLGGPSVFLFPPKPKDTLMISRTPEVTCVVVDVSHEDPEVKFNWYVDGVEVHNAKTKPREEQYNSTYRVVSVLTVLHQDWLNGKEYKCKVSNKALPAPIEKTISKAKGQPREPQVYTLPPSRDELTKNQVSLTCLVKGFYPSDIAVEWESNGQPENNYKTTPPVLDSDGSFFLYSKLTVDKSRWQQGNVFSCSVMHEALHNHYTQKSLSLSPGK

Monkey Ang-2FD-hFc = biological target: T3, Monkey Ang-2FD-hFc (monkey (Macca fascicularis)); assay: as above
T3 construct: also called dimeric monkey Ang-2FD
T3 sequence (chain, as listed by the source limits assumed): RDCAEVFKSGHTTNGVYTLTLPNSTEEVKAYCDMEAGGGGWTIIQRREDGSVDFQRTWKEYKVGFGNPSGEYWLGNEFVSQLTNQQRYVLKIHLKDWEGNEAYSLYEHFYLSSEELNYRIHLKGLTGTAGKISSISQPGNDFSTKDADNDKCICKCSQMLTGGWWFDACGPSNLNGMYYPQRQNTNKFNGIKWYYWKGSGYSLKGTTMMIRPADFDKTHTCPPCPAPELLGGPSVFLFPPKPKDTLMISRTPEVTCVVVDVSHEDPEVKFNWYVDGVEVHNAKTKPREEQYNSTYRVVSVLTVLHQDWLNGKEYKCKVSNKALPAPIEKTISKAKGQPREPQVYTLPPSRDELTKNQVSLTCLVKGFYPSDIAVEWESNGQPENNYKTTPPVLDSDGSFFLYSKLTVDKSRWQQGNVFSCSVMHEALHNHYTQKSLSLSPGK

Human Ang-2FD-hFc = biological target: T4, Human Ang-2FD-hFc (human); assay: as above
T4 construct: also called dimeric human Ang-2FD; human Ang-2FD protein conjugated to human IgG
T4 sequence (chain, as listed by the source limits assumed): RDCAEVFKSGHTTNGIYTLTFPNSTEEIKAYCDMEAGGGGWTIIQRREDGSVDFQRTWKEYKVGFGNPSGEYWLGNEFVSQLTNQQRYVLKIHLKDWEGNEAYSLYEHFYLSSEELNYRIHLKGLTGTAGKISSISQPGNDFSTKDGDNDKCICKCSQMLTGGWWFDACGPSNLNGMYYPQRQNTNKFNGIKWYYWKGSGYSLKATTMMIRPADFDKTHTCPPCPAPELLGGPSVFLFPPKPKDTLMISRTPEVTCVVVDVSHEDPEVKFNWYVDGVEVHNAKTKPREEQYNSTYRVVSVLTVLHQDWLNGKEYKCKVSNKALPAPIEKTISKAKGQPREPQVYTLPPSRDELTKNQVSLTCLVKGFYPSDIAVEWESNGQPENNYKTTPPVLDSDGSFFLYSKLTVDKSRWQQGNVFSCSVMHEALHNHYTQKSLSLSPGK

Biotin-hBA2 = biological target: T5, Biotin-hBA2 (human, biotinylated (sites not given)); assay: blocking ELISA, biotin-hBA2 to hTie-2
T5 construct: hBA2 consists of two dimers; also called biotinylated hBA2; human bow-Ang2
T5 sequence (chain, as listed by the source limits assumed): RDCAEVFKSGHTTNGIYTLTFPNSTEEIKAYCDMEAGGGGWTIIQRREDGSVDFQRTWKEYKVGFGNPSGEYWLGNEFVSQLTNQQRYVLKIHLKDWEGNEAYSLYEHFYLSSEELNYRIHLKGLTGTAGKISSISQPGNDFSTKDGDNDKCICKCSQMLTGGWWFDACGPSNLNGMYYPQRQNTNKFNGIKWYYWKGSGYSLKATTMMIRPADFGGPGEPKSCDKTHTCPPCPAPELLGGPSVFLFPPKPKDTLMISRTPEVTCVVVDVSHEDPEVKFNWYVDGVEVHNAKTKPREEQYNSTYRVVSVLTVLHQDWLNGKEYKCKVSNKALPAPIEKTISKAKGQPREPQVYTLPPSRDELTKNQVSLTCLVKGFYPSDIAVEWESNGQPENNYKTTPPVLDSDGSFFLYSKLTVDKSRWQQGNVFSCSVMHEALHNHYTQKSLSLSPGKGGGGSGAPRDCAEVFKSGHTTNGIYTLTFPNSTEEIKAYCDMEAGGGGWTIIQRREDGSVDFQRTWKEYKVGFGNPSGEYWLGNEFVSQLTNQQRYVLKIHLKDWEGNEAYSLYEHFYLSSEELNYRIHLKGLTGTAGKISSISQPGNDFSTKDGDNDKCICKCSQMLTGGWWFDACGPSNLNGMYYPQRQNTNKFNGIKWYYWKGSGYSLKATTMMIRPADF

Binder | RU (average) (hAng-1-WT [1]) [RU] | Percent of Negative Control Binding (hAng-1-WT [2]) [%] | Percent Blocking of Ang-2FD Binding to Tie-2 (Mouse Ang-2FD-hFc) [%] | Percent Blocking of Ang-2FD Binding to Tie-2 (Monkey Ang-2FD-hFc) [%] | Percent Blocking of Ang-2FD Binding to Tie-2 (Human Ang-2FD-hFc) [%] | IC50 (Biotin-hBA2) [pM]
B1 | 140 | 83 | 95.9 | 99.8 | 97.1 | 8
B2 | 57 | 34 | 97.1 | 96.6 | 96.6 | 4
B3 | 71 | 42 | – | – | – | –
